According to paper PMC5891007, “The crystal structure of XdpB, the bacterial old yellow enzyme, in an FMN-free form” (PLoS ONE, 2018):
Each block holds one molecule with its values, some of them ahead of it.

Legend:
[1] = target: XdpR, TetR family transcriptional regulator of the xdo operon (Agrobacterium bohemicum R89-1); assay: SEC + native gel or EMSA; gel filtration; native (blue native, 7% PAGE) and SDS electrophoresis
[2] = target: OPR3 (Solanum lycopersicum) (UniProt Q9FEW9); conditions: cited from earlier work
[3] = target: XdpA, short chain dehydrogenase of the xdo operon (Agrobacterium bohemicum R89-1); assay: SEC; gel filtration chromatography, with SDS PAGE for the subunit
XdpB (XdpBwt) [4] = target: T1, XdpB (XdpBwt) (Agrobacterium tumefaciens, UniProt A0A0A0VDJ9); assay: spectrophotometric NADH oxidation at […] nm, Lineweaver-Burk; conditions: read-out: Km^GTN; NADH co-substrate; pH 8; 25 °C; in vitro flavinated, recalculated to FMN saturation
[5] = system: NC(=O)C1=CN([C@@H]2O[C@H](COP(=O)(O)OP(=O)(O)OC[C@H]3O[C@@H](n4cnc5c(N)ncnc54)[C@H](O)[C@@H]3O)[C@@H](O)[C@H]2O)C=CC1; assay: purified protein; conditions: NADH co-substrate, pH 8, 25 °C, in vitro flavinated, recalculated to FMN saturation, except NADH varied (0.015 to 0.3 mM), co-substrate GTN
XdpB (XdpBwt) [6] = target: T1, XdpB (XdpBwt); assay: nanoDSF melting temperature; type: binding; design: full length with N-terminal His tag (XdpBwt), made in E. coli, Ni-NTA and gel filtration; in vitro flavinated with FMN for kinetics; C-terminal residue Asn365; conditions: apo form Tm 38.9 °C, 1 °C/min

T1 sequence (A0A0A0VDJ9 entry or part of it): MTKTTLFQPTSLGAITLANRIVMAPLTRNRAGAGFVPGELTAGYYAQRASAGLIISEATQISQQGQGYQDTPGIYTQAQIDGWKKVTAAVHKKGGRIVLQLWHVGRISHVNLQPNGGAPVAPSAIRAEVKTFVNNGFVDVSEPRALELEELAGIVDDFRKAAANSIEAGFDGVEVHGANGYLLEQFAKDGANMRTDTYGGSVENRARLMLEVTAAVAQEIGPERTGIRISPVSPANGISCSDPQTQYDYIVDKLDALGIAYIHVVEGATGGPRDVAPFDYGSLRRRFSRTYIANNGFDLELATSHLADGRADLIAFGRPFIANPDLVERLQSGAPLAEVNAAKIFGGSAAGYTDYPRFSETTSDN
OPR3, sequence (Q9FEW9 whole entry): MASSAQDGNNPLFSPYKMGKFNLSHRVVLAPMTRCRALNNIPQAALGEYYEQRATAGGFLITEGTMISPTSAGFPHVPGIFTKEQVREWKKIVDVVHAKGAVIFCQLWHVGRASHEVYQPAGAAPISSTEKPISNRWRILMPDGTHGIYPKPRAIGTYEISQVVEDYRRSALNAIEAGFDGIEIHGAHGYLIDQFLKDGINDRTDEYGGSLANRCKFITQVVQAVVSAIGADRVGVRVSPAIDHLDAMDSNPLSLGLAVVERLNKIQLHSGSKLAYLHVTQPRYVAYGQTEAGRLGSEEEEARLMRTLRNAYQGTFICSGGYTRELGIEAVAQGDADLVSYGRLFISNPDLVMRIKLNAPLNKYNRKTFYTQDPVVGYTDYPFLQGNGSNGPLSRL

stoichiometry N [1]: 2
Molecule: XdpR, TetR family transcriptional regulator of the xdo operon (natural protein)

Molecule: OPR3 (from UniProt Q9FEW9)
Kd [2]: 30 µM

stoichiometry N [3]: 2
Molecule: XdpA, short chain dehydrogenase of the xdo operon (enzyme)

Molecule: O=[N+]([O-])OCC(CO[N+](=O)[O-])O[N+](=O)[O-] [GTN, glycerol trinitrate]
Km (XdpB (XdpBwt) [4]): 460 ± 132 µM

Molecule: XdpB (XdpBwt) (Agrobacterium tumefaciens)
Km [5]: 6 ± 1 µM

Molecule: Cc1cc2nc3c(=O)[nH]c(=O)nc-3n(C[C@H](O)[C@H](O)[C@H](O)COP(=O)(O)O)c2cc1C [FMN, flavin mononucleotide]
melting temperature of in vitro flavinated form (XdpB (XdpBwt) [6]): 39.8 °C
